Measured values published in patent US8728787B2, “Fungal laccases and uses thereof” (Academia Sinica, priority 2010, dated 2014).

Experiments:
[1] = Effect of organic solvents on laccase activity; type: biochemical; details: ABTS
Description: To test the effects of various organic solvents on laccase activity, the enzymatic assay described above was carried out in the presence of one of the organic solvents shown in Table 1 below at various concentrations (1%, 10% and 25%). A T. versicolor (Fluka) laccase was used as a reference enzyme in this study. The enzyme concentration used in this study was 0.2 mg/ml. […] Further, more than 80% laccase activity remained in the presence of 10% acetonitrile or dimethyl sulfoxide. […]

[2] = Laccase stability on extended incubation with ethanol or methanol; type: physicochemical; details: room temperature, pH 6.0
Description: To examine the effect of ethanol on Cerrena sp. WR1 laccase stability, the enzyme was incubated in a 50 mM sodium phosphate buffer (pH 6.0) containing 1%, 10%, or 25% ethanol at room temperature for up to 52 days and the residual enzyme activity was measured at different time points during incubation. A T. versicolor laccase (LccTv) was used as a reference enzyme. […] Differently, Lcc3 retained around 90% activity after being incubated with 25% ethanol for 10 days and retained approximately 50% enzymatic activity after a 40-day incubation period. This enzyme also retained about 50% enzymatic activity after a 45-day incubation period with 10% ethanol and a 40-day incubation without ethanol.
The laccase stability after incubation with methanol or ethanol for an extended period was further investigated. […] The enzyme activity of the Lentinus sp. laccase maintained as 95% in 25% ethanol while that of the reference laccase reduced to 41%.

[3] = Guaiacol oxidation (laccase kinetics, optimum temperature and pH); type: biochemical; details: guaiacol as substrate
Description: (§1) The effect of temperature on laccase activity was studied using the standard enzymatic activity assay described above under various reaction temperatures (i.e., 20-80° C.). For thermal stability study, the enzyme was pre-incubated in a 50 mM citric acid buffer (pH 3.0) at 50-80° C. for 0-180 min and the residual enzymatic activity was then determined.
(§2) The effect of pH on the laccase activity was investigated at a pH range of 2.5-6.0. Four buffer systems were used in this study: 50 mM glycine-HCl buffer (pH 2.5), 50 mM citric acid buffer (pH 3.0-5.5), 50 mM sodium phosphate buffer (pH 6.0-8.0), and 50 mM glycine-NaOH buffer (pH 9.0-10). To determine the protein stability of laccase at a wide range of pH conditions, the enzyme (0.1 mg/mL in each reaction) was pre-incubated at pH 3.0-10 at 25° C. for 0-5 days and then the residual enzyme activity was determined.
Kinetic parameters Km and Vmax were determined as follows. […] The oxidation reactions of guaiacol and 2,6-DMP were monitored by determining OD436 values (ε=6,400 M^−1cm^−1) and OD468 values (ε=49,600 M^−1 cm^−1), respectively. The kinetic parameters were determined by nonlinear regression analysis (ENZFITTER software program, Elsevier-Biosoft, Cambridge, UK) using the Michaelis-Menten model.
(§3) To determine the effect of temperature on the enzyme activity, a standard enzymatic activity assay was performed under various temperatures (i.e., 30-90° C.). For thermal stability study, laccase was pre-incubated in a 50 mM citric acid buffer (pH 3.0) at 30-80° C. for 10-40 min and the residual enzymatic activity was then determined by the standard assay. See Example 1 above. Values of t1/2 were determined accordingly.
(§4) The effect of pH on laccase activity was investigated at pH 2.0-6.0, using a glycine-HCl buffer (pH 2.0-2.5) or a citric acid buffer (pH 2.5-6.0). To determine protein stability in different pH conditions, the enzyme was pre-incubated at pH 2.5-4.5 at 25° C. for 0-2 h and the residual enzyme activity was determined by the standard enzymatic assay.
Kinetic parameters were determined following conventional methods. See also Example 1 above.

[4] = pH stability: residual activity after pre-incubation at various pH; type: physicochemical
Description: as §2, §4

[5] = Laccase activity in culture media of recombinant P. pastoris; type: biochemical; details: expressed in P. pastoris X-33; 13-26 day (Lcc1-3) or 18-day (LccA) cultivation
Excerpt: The EasySelect™ Pichia Expression System (Invitrogen) was used in this study for expression of Lcc1, Lcc2, and Lcc3 laccases. cDNA fragments coding for these three laccases were cloned into Pichia expression vector pPICZA or pPICZaB via EcoRI and NotI restriction sites. More specifically, the lcc1 gene coding for Lcc1 precursor (including a signal peptide sequence) was cloned into pPICA to generate expression plasmid pPICZA-lcc1 and the lcc2 and lcc3 genes coding for mature Lcc2 and Lcc3 were cloned into pPICZaB to obtain expression plasmids pPICZaB-lcc2 and pPICZaB-lcc3, respectively. The three expression plasmids were introduced into P. pastoris X-33 cells following the method described in Invitrogen's protocol. Positive transformants were cultured in BMMY (1% yeast extract, 2% peptone, 100 mM potassium phosphate, pH 6.0, 1.34% yeast nitrogen base, 0.00004% biotin, and 0.5% methanol) at 25° C., 200 rpm for 12-26 days. Methanol was added to the culture media daily to reach a final concentration of 0.5%. During the cultivation, 1 ml of the supernatant was collected at various time points. The laccase activity and cell density in the supernatant were determined following the method described above or routine procedures.
pPICZ-lccA was introduced into Pichia pastoris strain X-33 host cells (Invitrogen) and positive transformants were selected for LccA expression. Briefly, a positive transformant was cultured in BMMY medium containing 1% yeast extract, 2% peptone, 1.34% yeast nitrogen base, 0.00004% biotin, and 0.5% methanol at 25° C. and 200 rpm for 20 days. Methanol was daily added to reach a final concentration of 0.5%. Within the 20-day cultivation, 1 ml of the supernatant was collected; laccase activity and cell growth were determined.

[6] = Thermal stability: residual enzymatic activity after pre-incubation (t1/2); type: physicochemical; details: for t1/2: 50 mM citric acid buffer pH 3.0
Description: as §1
To test thermal stability, the enzyme was kept at various temperatures (50-80° C.) for 10-40 min and the remaining enzymatic activity was determined using the standard activity assay.
as §3

B1: Lcc3: laccase purified from Cerrena sp. WR1, GenBank accession no. GQ899203; SEQ ID NO:3 mature, 9 precursor (protein)
chain: AIGPVADLHITDANVSPDGFTRPAVLAGGTFPGPLITGKQGDNFQINVIDELTDATMLKSTSIHWHGIFQKGTNWADGPSFVNQCPITTGNSFLYDFSVPDQTGTYWYHSHLSTQYCDGLRGALVIYDDNDPHKDLYDVDDETTVITLADWYHTQARLITGVPVSDATLINGLGRYLNGPTDAPLAVITVDQGKRYRFRLVSISCDPNFVFSIDNHSMTVIEVDAVNSQPLVVDSIQIFAAQRYSFILNANQSVGNYWIRANPNLGNTGFTNGINSAILRYNGAPVAEPNTTQTASTNPLNEVNLHPLVPTPVPGTPQPGGVDVVQNLVLGFSGGKFTINGVAFSPPTVPVLLQILSGTTTAQDLLPTGSIIELPLGKTVELTLAAGVLGGPHPFHLHGHTFHVVRSAGQTTPNYVDPILRDTVNTGAAGDNVTIRFTTDNPGPWFLHCHIDWHLEAGFAVVFAEGLNQTNAANPTPDAWNNLCDLYNALPAGDQ
modifications: Cerrena sp
Relative activity ([1]; Acetonitrile 1%, pH 3.0, 30° C.): 92.7 ± 2.5% | Relative activity ([1]; Acetonitrile 25%, pH 3.0, 30° C.): 77.5 ± 3.2% | Relative activity ([1]; Dimethyl sulfoxide 1%, pH 3.0, 30° C.): 93.5 ± 1.4% | Relative activity ([1]; Dimethyl sulfoxide 25%, pH 3.0, 30° C.): 55.8 ± 1.7% | Relative activity ([1]; Ethanol 1%, pH 3.0, 30° C.): 94.5 ± 1.8% | Relative activity ([1]; Ethanol 10%, pH 3.0, 30° C.): 93.9 ± 4.0% | Relative activity ([1]; Ethanol 25%, pH 3.0, 30° C.): 84.8 ± 3.3% | Relative activity ([1]; Methanol 1%, 50 mM citric acid buffer pH 3.0, 30° C.): 93.0 ± 1.5% | Relative activity ([1]; Methanol 10%, pH 3.0, 30° C.): 85.5 ± 0.9% | Relative activity ([1]; N,N-dimethylformamide 1%, pH 3.0, 30° C.): 100 ± 0.9% | Relative activity ([1]; N,N-dimethylformamide 10%, pH 3.0, 30° C.): 98.4 ± 0.5% | activity retained ([2]; 1% ethanol, 52-day incubation): about 61% | activity retained ([2]; 10% ethanol, 45-day incubation): approximately 50% | activity retained ([2]; 25% ethanol, 40-day incubation): approximately 50% | activity retained ([2]; 25% ethanol, 10 days): around 90% | activity retained ([2]; without ethanol, 40-day incubation): approximately 50% | optimal temperature [3]: 70 °C | pH of maximal activity [3]: 4.5 | Optimum temperature ([3]; at pH 4.5): 70 (at pH 4.5) ° C. | Specific activity ([3]; optimum temperature and pH): 189.7 U/mg | stability at an acidic environment ([4]; pH 3.0-5.0): less stable | activity maintained ([4]; pH 6-10, 63 hr incubation, 25° C.): about 100% | laccase activity in culture media [5]: ~3700 U/L | t1/2 at room temperature ([6]; 25° C., 50 mM sodium phosphate buffer (pH 6.0)): 40 days | t1/2 ([6]; at 50° C.): 120 min | t1/2 ([6]; at 60° C.): 40 min | t1/2 ([6]; at 70° C.): 7.5 min | t1/2 ([6]; at 70° C., listed as Cerrena sp. WR1): 8 min
